T1: NdmA (wild-type caffeine N1-demethylase) (UniProt H9N289)
T1 sequence (looked up): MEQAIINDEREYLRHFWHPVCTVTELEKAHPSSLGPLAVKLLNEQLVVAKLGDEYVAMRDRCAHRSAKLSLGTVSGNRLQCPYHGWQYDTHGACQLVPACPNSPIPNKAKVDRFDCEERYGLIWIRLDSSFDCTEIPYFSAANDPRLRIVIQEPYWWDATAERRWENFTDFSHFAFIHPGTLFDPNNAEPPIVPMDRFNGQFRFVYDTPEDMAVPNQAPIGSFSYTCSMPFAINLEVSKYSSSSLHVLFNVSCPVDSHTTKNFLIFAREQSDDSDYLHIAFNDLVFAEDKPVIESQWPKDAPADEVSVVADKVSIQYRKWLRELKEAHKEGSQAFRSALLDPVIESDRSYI

T2: NdmB (wild-type theobromine N3-demethylase) (UniProt H9N290)
T2 sequence (looked up): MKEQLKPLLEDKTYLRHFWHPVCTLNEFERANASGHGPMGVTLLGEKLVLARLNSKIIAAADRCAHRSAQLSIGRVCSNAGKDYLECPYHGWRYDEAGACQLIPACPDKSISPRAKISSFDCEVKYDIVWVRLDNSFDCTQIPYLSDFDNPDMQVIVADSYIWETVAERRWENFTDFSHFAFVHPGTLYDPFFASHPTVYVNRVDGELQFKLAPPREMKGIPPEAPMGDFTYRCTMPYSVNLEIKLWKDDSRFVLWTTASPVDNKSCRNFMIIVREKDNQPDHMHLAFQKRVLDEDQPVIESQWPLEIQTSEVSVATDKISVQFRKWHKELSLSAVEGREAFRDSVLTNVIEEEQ


Legend:
[1] = molecular target: T1, NdmA (wild-type caffeine N1-demethylase); assay: cell-based or functional assay
[2] = molecular target: T2, NdmB (wild-type theobromine N3-demethylase); assay: cell-based or functional assay

| Binder | N1-demethylase activity in NdmA cells, lower than in cells with the wild type reductase [1] | remaining N-demethylase activity in the in vivo assays (% of the wild-type enzyme) [1] | N3-demethylase activity in NdmB cells, reduction [2] | remaining N-demethylase activity in the in vivo assays (% of the wild-type enzyme) [2] |
| --- | --- | --- | --- | --- |
| NdmD V541W mutant (NdmDW) (enzyme, UniProt H9N291 1-588, looked up) MNKLDVNQWFPIATTEDLPKRHVFHATLLGQEMAIWRDDSGSVNAWENRCPHRGLRLTLGANTGNELRCQYHGWTYESGTGGCTFVPAHRDAPPPNAARVNTFPVREKHGFIWTTLGQPPGEPISILDDAQLVNAVKTNLHSVVIDADIDGVVSVLRQNLSAFIDVFGAASAEDLHLKSMLQDRGILVTRSGSIAIHFYMQRSTISKCVVHAQVLTPGRPGYELQKNYSYAMNVIRRAAEAVATDLISITDISDQTIEKLEVVRENMTKAPPTHYICEVVTRTQETGDINSYWLKPIGYPLPAFSPGMHISITTPEGSIRQYSLVNGPDERESFIIGVKKEIQSRGGSRSMHEDVKVGTQLKVTLPRNGFPLVQTRKHPILVAGGIGITPILCMAQALDQQGSSYEIHYFARAFEHVPFQDRLTALGDRLNVHLGLGPDETRAKLPDIMEIHNAQDVDVYTCGPQPMIETVSAVALAHGIAEESIRFEFFSKKNDVPVSDEEYEVELKKTGQIFTVSPGSTLLQACLDNDVRIEASCEQGWCGTCITPVVSGDLEHHDTYLSKKERESGKWIMPCVSRCKSKKIVLDL | 7 % lower | > 60 | 36 % reduced | > 60 |
| NdmD V541R mutant (NdmDR) (enzyme, UniProt H9N291 1-588, looked up) MNKLDVNQWFPIATTEDLPKRHVFHATLLGQEMAIWRDDSGSVNAWENRCPHRGLRLTLGANTGNELRCQYHGWTYESGTGGCTFVPAHRDAPPPNAARVNTFPVREKHGFIWTTLGQPPGEPISILDDAQLVNAVKTNLHSVVIDADIDGVVSVLRQNLSAFIDVFGAASAEDLHLKSMLQDRGILVTRSGSIAIHFYMQRSTISKCVVHAQVLTPGRPGYELQKNYSYAMNVIRRAAEAVATDLISITDISDQTIEKLEVVRENMTKAPPTHYICEVVTRTQETGDINSYWLKPIGYPLPAFSPGMHISITTPEGSIRQYSLVNGPDERESFIIGVKKEIQSRGGSRSMHEDVKVGTQLKVTLPRNGFPLVQTRKHPILVAGGIGITPILCMAQALDQQGSSYEIHYFARAFEHVPFQDRLTALGDRLNVHLGLGPDETRAKLPDIMEIHNAQDVDVYTCGPQPMIETVSAVALAHGIAEESIRFEFFSKKNDVPVSDEEYEVELKKTGQIFTVSPGSTLLQACLDNDVRIEASCEQGRCGTCITPVVSGDLEHHDTYLSKKERESGKWIMPCVSRCKSKKIVLDL | 30 % lower | > 60 | 20 % reduced | > 60 |
